This is an account of results in US20250206799A1 (KEROS THERAPEUTICS, published 2025).

Test [1] deals with T1, extracellular ActRIIA (SEQ ID NO: 16) fused to the N-terminus of hFc through a GGG linker (human, UniProt P27037 20-127).
T1 construct: also called ActRIIA-Fc; not shown: hFc
The test can be described thus: SPR (Biacore 3000), ActRII-Fc captured by anti-Fc antibody, ligand in solution, CM-4 chip. The text has this:
(§1) The GE Biacore 3000 was used to measure the kinetics of the interactions between the ActRIIB-Fc variants and the ligands Activin A, Activin B, growth differentiation factor 11 (GDF11), and BMP-9. ActRIIA, ActRIIB, ActRIIB 2.06, ActRIIB 2.11 and ActRIIB 2.12 were recombinant proteins. All other ActRIIB-Fc variants were expressed by transient expression in HEK293 cells and purified from the conditioned media using Protein-A Sepharose chromatography. Flow cells 1-4 were immobilized with anti-human/anti-mouse capture antibodies from GE using the amine coupling kit. The ActRII-Fc proteins were then captured on the chip in flow cells 2-4, with flow cell 1 being left empty as a reference cell to measure and subtract any nonspecific binding. HBS-EP+ buffer from GE Healthcare™ was used as a running buffer. Each ligand was run in a duplicate concentration series at 40 μl/min to avoid mass transport effects. All data was collected on a CM-5 chip except for GDF-11, which used CM-4. The data was analyzed using Scrubber2 by BioLogic™ Software to calculate the KD of each interaction (Table 3).
Background: SPR reads the build-up and loss of mass on a sensor chip optically.

Test [2] concerns the target T2, extracellular ActRIIB (SEQ ID NO: 17) fused to the N-terminus of hFc through a GGG linker (human, UniProt Q13705 20-134).
T2 construct: also called ActRIIB-Fc; not shown: hFc
T2 sequence: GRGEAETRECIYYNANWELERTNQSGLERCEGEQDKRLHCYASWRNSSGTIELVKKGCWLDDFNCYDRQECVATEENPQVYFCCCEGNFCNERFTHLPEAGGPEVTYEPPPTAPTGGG
The description is as above.
Description: as §1

B1: growth differentiation factor 11 (GDF11) (ligand, UniProt O95390 299-407, looked up)
chain: NLGLDCDEHSSESRCCRYPLTVDFEAFGWDWIIAPKRYKANYCSGQCEYMFMQKYPHTHLVQQANPRGSAGPCCTPTKMSPINMLYFNDKQQIIYGKIPGMVVDRCGCS
A word on the Kd: it is the free concentration of one partner at which half of the binding sites on the other are occupied at equilibrium, for simple one-to-one binding. Low readings indicate a tighter complex, high ones a looser complex. For B1, the Kd in test [1] was determined as 0.081 nM; in test [2], 0.12 nM.
